This is an account of results in PMC6529012.

The target in test [1] is human foreskin fibroblast fibronectin (human).
The target is the same in test [2]. This is another data set of the same source.

Sequence of human foreskin fibroblast fibronectin (human) (P02751 32-2477): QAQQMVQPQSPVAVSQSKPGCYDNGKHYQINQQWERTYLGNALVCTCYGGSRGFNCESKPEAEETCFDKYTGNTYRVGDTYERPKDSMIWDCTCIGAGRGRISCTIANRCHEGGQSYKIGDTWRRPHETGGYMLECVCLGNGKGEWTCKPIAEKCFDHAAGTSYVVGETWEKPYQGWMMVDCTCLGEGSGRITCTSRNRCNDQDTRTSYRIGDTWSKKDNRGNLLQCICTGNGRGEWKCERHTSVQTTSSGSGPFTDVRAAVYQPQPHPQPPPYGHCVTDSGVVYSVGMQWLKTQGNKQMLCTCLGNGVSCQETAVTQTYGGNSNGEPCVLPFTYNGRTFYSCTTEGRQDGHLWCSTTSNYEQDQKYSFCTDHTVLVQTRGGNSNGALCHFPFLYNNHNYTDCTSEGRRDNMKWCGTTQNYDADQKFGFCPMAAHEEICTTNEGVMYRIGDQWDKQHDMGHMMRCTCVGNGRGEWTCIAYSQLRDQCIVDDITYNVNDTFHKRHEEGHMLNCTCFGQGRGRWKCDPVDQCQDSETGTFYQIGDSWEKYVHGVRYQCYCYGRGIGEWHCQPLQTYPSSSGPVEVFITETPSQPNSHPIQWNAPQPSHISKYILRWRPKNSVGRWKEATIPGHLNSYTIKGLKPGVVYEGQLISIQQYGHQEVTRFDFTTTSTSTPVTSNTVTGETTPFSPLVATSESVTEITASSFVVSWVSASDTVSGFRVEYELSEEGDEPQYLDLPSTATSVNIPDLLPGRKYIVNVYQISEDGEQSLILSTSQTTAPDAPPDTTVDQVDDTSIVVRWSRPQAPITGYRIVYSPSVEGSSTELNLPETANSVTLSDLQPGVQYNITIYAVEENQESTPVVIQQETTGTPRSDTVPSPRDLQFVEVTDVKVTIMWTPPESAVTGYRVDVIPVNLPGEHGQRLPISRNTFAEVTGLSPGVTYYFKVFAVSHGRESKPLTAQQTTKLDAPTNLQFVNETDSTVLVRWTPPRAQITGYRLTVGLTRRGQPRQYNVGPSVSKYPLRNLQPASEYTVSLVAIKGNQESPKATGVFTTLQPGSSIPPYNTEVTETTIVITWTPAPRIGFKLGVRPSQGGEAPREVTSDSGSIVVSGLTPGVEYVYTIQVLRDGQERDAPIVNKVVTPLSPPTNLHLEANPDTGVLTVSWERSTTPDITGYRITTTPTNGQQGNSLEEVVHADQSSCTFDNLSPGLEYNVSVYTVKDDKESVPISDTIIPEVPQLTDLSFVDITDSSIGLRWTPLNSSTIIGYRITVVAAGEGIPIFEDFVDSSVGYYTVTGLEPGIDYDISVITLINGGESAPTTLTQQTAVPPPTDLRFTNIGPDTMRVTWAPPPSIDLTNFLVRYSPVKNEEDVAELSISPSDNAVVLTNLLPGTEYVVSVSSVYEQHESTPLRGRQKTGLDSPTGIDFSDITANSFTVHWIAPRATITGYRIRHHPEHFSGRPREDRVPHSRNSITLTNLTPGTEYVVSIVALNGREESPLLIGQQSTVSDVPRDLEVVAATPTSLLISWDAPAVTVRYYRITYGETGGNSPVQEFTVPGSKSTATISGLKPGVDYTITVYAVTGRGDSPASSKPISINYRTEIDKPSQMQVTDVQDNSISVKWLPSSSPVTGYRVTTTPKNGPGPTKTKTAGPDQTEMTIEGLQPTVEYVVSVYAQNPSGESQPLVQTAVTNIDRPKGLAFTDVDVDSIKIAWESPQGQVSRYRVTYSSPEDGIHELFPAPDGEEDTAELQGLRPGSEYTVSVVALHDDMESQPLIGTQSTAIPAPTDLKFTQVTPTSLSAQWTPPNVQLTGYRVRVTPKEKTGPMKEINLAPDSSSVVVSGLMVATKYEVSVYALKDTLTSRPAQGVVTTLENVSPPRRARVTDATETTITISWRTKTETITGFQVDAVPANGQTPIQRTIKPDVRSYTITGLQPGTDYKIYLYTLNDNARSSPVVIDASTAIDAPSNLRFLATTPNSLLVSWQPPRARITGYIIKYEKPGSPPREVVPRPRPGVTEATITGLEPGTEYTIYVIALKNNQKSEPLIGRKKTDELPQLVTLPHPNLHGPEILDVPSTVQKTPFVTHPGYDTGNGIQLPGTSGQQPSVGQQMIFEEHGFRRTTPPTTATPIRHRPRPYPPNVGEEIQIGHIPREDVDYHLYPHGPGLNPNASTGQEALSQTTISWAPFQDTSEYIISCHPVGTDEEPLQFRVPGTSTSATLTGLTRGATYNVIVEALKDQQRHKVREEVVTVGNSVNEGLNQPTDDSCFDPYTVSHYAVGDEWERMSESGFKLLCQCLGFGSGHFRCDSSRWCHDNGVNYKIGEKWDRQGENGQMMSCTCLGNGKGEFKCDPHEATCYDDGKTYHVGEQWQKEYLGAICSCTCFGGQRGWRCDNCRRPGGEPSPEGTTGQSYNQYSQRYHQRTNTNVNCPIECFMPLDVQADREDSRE

B1: Tp0136 of Treponema pallidum subsp. pallidum SS14 strain, expressed on the surface of B. burgdorferi B314 (natural protein)
chain: CDFTGIFAAIQSEVPIKTPSIPGAIYGLVKAGSKLYATNGRLWEKELNGTGSWQKVSSSSVPTDSDKKVMSIATDGNTFVLACVPGTGVYKHCVNGAGSSSTGTTASPSTETCSQHATLVGGTSKPFWLVPGGTGNNGNCGCGGGGGGSSSSSSSCIHIWLVPGGTGNNGNCGCGGGGGGSSSSSSSCIHIKVENTDEQFLDMGEGYVVTTKHLYTKNGSSSAGPAQCPGGGGGGGSSGGGGSSEYTKASCSFSTPILASVSDGCYHYILTKEKVYCRKQDTASSAASSPAQCPSSPSSSSSSSTNAGCEVAHGVDDPLCLAIFKHNGCEYLLIGGSRGYGEIKLEANSSGTNGTCMRLKESNVHKSPGQWGESSPTPKASAEQYRGTVGRFAVQKIYVVEKNGGGNGVAAGGAGCPANASSSSGGTSSTQRPDLYAAVGESSDTYTGLWKFDTTTCSWNRE
B1: in test [1], the reduction by FnbA-2 peptide (10 ug/well, preincubated with the monolayer) of adherence of radiolabelled B314 expressing Tp0136 to C6 (rat) glioma cells was 25.3% and the reduction by FnbA-2 peptide (10 ug/well, preincubated with the monolayer) of adherence of radiolabelled B314 expressing Tp0136 to HEK293 cells worked out at 18.8%. Further, in test [2], the average percent binding of radiolabelled B314 expressing Tp0136 to Vero cells is 6%.

B2: Tp0136 of Treponema pallidum subsp. pallidum Nichols (Seattle-Nichols) strain, expressed on the surface of B. burgdorferi B314 (natural protein)
chain: CDFTGIFAAIQSEVPIKTPSIPGAIYGLVKAGSKLYATNGRLWEKELNGTGSWQKVSSSSVPTDSDKKVMSIATDGNTFVLACVPGTGVYKHCVNGAGSSSTGTTASPSTETCSQHATLVGGTSKPFWLVPGGTGNNGNCGCGGGGGGSSSSSSSCIHIWLVPGGTGNNGNCGCGGGGGGSSSSSSSCIHIKVENTDEQFLDMGEGYVVTTKHLYTKNGSSSAGPAQCPGGGGGGGSSGGGGSSEYTKASCSFSTPILASVSDGCYHYILTKEKVYCRKQDTASSAASSPAQCPSSPSSSSSSSTNAGCEVAHGVDDPLCLAIFKHNGCEYLLIGGSRGYGEIKLEANSSGTNGTCMRLKESNVHKSPGQWGESSPTPKASAEQYRGTVGRFAVQKIYVVEKNGGGNGVAAGGAGCPANASSSSGGTSSTQRPDLYAAVGESSDTYTGLWKFDTTTCSWNRE
In test [1], B2 displayed a reduction by FnbA-2 peptide (10 ug/well, preincubated with the monolayer) of adherence of radiolabelled B314 expressing Tp0136 to C6 (rat) glioma cells of 27.7% and a reduction by FnbA-2 peptide (10 ug/well, preincubated with the monolayer) of adherence of radiolabelled B314 expressing Tp0136 to HEK293 cells of 26.3%. In addition, the average percent binding of radiolabelled B314 expressing Tp0136 to Vero cells in test [2] is 8%.
